Test results as given in the DeepSol protein solubility set.

Assay: soluble on expression in E. coli; label from the status in PepcDB or PDB records

Question: For “ITELTNIHLIKGNLQANSKNEVFAELAQMLLENNRISNKEDFLNDIEIRERLSVTSMDGIAYPHSKSKAVTKPAIAVGVKHEGIEYGDEEGIKPTVFFMIASPDNGADHHIYVLQELFGKFSEEFIEDIHNAKNEHQILNISIQS”, which “soluble on expression in E. coli” value is on record?
Answer: soluble

Question: Which “soluble on expression in E. coli” value does the source give for “IYAYVPLRTPENTGHLALLDGQLELAYQPIVEVAGSDTAQYQVLLRLRKADGNLLSAGLVIPAAEAAGRIMELDQQVIEQALDILKLHQDTNQQLRLFVSQSVRTLIHEGFSDWIIKNLRERNVNGTGLVIDLRLQDAVIHAIPLKQLCKELLKHNVKFCLSQFESNSEATVLFSELPLNFVRLSQHFGDAHNHPERQKELPLLIEQAHEHNLHVIGQCIEDAQAATFMWMNGVDLIQGNLFQNV” here?
Answer: not soluble

Question: For “IYGYVEKATLIDQNLTLSAKLDTGAKSASLHAVNITEIEKKGIPYLRFTVPTKTGDYSFEGEYVGKVKIKVRSSETNPGLLRTTPIKRPVVLLNIKLGDKVRTIKVNLTNRKRFLYPLLLGRDAIIDFNGAVDPALTFTTKSK”, which “soluble on expression in E. coli” value is on record?
Answer: soluble

Question: With “KAFIDIFDSFDPEPIACGSIAQVYKGVLEGKPVAVKILRPHLIDIINIDLSILDDFKPVMKKVMGVGKNFDIDAFLLEIREMLTREVDLRIEAVNMRRFEDNFKNVKNVSVPKIYPDYC” as the sequence, how does the “soluble on expression in E. coli” value read?
Answer: not soluble

Question: For “KDADVDITLIDRTNHHLFQPLLYQVATGILSSGEIAPQTRQVLAQQNNVHVLKAEVTDIDTESKTVVADLDDYSKTIEYDSLIVAAGAGQSYFGNDHFAEFAPGMKTIDDALELRARIIGAFERAEMCEDPKERERLLTFVIVGAGPTGVELAGQLAEMAHRTLSGEYTQFTPSNAKIILLDGAPQVLPPFGKR”, which “soluble on expression in E. coli” value is on record?
Answer: not soluble

Question: Which “soluble on expression in E. coli” value does the source give for “KDAVLVNSELKNIYMKDVINKTNMKITKKIGTQLIFNTNEKTRVWDDDNYNKVISSNVSPAQERRFKEEEEVDIYALIKSYSVICKEQYNYVDGGLIKTSDREKLDSTIYMNIFGEQIPLKEQSKYKITFQNKFVTFQEIDVRLRKSLMSDNRIKLYEHNSICKKGYWGIHYKDNTTKFTDLFTHPNYTDNETIDMSKVSHFDVYLNEEFSKN” here?
Answer: soluble

Question: With “KEDMATSELNKTVQKVEEVSKKIKNKAKPKVVWASVYEGSAYIAPKDSYVDNMIKMAGGINACASIDSNEGRVSIEQLHEVAKDADIFVYSSSSDYAPNLDSIKSSAPVLADLDVVKNGNLWVFAPDYYQSVDKTDELIVDLVEMFHPGTTGEKIKHYINYDK” as the sequence, how does the “soluble on expression in E. coli” value read?
Answer: not soluble

Question: Which “soluble on expression in E. coli” value does the source give for “KGFFALSSCTLGLGLILTACGARGKFDQVDDGVIKLATSIQNKDSIAALNTIYKKYKERHPGSYPVQNFQVPGGYSGLRNDIRTRLSAKDGNNFYNI” here?
Answer: not soluble

Question: With “KGTSENKSTTATDTVQAEKPQSGTIHLTRAEFLKKIADYENHSKEWKYLGDKPAIVDFYADWCGPCKMVAPILEELSKEYAGKIYIYKVNVDKEPELARDFGIQGIPTIWFVPMKGEPQVNMGALSKEQLKGYIDKVLLKQ” as the sequence, how does the “soluble on expression in E. coli” value read?
Answer: soluble

Question: Which “soluble on expression in E. coli” value does the source give for “KIIHIDCDCFYAALEMRDDPSLRGKALAVGGSPDKRGVVATCSYEARAYGVRSAMAMRTALKLCPDLLVVRPRFDVYRAVSKQIHAIFRDYTDLIEPLSLDEAYLDVSASPHFAGSATRIAQDIRRRVAEELHITVSAGVAPNKFLAKIASDWRKPDGLFVITPEQVDGFVAELPVAKLHGVGKVTAERLARMGIRTCADLRQGSKLSLVREFGSFGERLWGLAHGIDERPVEVDSRRQSVSVECTFDRDLPDLAACLEELPTLLEELDGRLQRLDGSYRPDKPFVKLKFHDFTQTTVEQSGAGRDLESYRQLLGQAFARGNRPVRLIGVGVRLLDLQGAHEQLR” here?
Answer: not soluble

Question: For “KIQEWLGESDYSDFLSVVEAVHDSGPSFVLQAMKSLDKYDAMMCISVDSMVNRIQELIDDTMVMSTNNPWGVIPSEGGAGLIFCRRNTVETLKLKPLAQLGYIDTELNTSDRRGMYRLVQRASKKLTAFGEVYSDMTNLRAHSEDYGFALGAKAERFINPEQPLLINE”, which “soluble on expression in E. coli” value is on record?
Answer: not soluble

Question: With “KKLNDFQEDAVNTILYSNKRKFLIHGVTGSGKTEIYMHLVKKMIEDNKQSIILVPEISLTPQMIERFKGRFGLNVAVFHSKLSDGERYDEWIRVKNGEVKVAVGARSALFLPFDKLGLIVIDEEHEGSYKSESDPKYNAIEVAEMKSAIEDCILVLGSATP” as the sequence, how does the “soluble on expression in E. coli” value read?
Answer: not soluble

Question: For “KKNYALSFNANVGFNKNKVKSLGSLMDYSADSGWASTDIQSDFKVQPGHSVGEIYGFVSDGRYEVSDFEGFIDGKWVLKAGVADASDIIGEKYLRPGAMKLKNVDGSEDNKVTKDDQKVIGDTNPFCSGGFSVNARVYGFDLTANFTYSIGNDIYNANKIEYTSSSKYKYRNMIDVMAEEKRWTNLNADGTICNDPTQLAAMNANTSMWSPWTQKYVLTDWAVEDGSFLRLATLSIGYTLPQTLTRKVGIQNLRFYATGYNLFCITNYSGFDPEVSTRTKSALTPGVDYSAYPRSRQYVIGLNLTF”, which “soluble on expression in E. coli” value is on record?
Answer: not soluble

Question: Which “soluble on expression in E. coli” value does the source give for “KKRIQTEHCSYNRRRDYPLFKFIEYVLYWGHHYTVSISEKVQEELVKFMPRYQHKYRVVHNGVDLNRFPMTAKQAHDISEKATINIGMVGRLHEHKDHETLIHAIAKLPECYHLHLAGDGDRKASLQRLAQSLNVSPRVHFHGVVSDIPRFLSDMDIYVQSSHVE” here?
Answer: not soluble

Question: Which “soluble on expression in E. coli” value does the source give for “KKTSGNQDEILVIRKGWLTINNIGIMKGGSKEYWFVLTAENLSWYKDDEEKEKKYMLSVDNLKLRDVEKGFMSSKHIFALFNTEQRNVYKDYRQLELACETQEEVDSWKASFLRAGVYPERV” here?
Answer: soluble

Question: Which “soluble on expression in E. coli” value does the source give for “KLEGAFAKGTNVLMADGSIECIENIEVGNKVMGKDGRPREVIKLPRGRETMYSVVQKSQHRAHKSDSSREVPELLKFTCNATHELVVRTPRSVRRLSRTIKGVEYFEVITFEMGQKKAPDGRIVELVKEVSKSYPISEGPERANELVESYRKASNKAYFEWTIEARDLSLLGSHVRKATYQTYAPILYENDHFFDYMQKSKFHLTIEGPKVLAYLLGLWIGDGLSDRATFSVDSRDTSLMERVTEYAEKLNLCAEYKDRKEPQVAKTVNLYSKVVRGNGIRNNLNTENPLWDAIVGLGFLKDGVKNIPSFLSTDNIGTRETFLAGLIDSDGYVTDEHGIKATIKTIHTSVRDGLVSLARSLGLVVSVNAEPAKVDMNGTKHKISYAIYMSGGDVLLNVLSKCAGSKKFRPAPAAAFARECRGFYFELQELKEDDYYGITLSDDSDHQFLLANQVVVHACGER” here?
Answer: soluble

Question: Which “soluble on expression in E. coli” value does the source give for “KLMKVNHAADAAEEGLVSDPLEWTGVRIGPGINGTIAQLPTLAGEEIIATRVVHSKTFHSLAAPNDRLHEGMVLVIHGTPDALERAIAKVGKQQDVPIEDTDLVYSRFTVSSKAVVGRKISDLDTVRSGFIISRLRRGDADVVPEPDDVLHYSDRVRVIAPANRMSEVRRFLGDSERSLADVD” here?
Answer: not soluble

Question: For “KPMKILLANPRGFCAGVDRAISIVERALELYQPPIYVRHEVVHNRFVVEGLKQRGARFVEELNEVPDDNIVIFSAHGVSQAVRQEAKERSLTVFDATCPLVTKVHMEVARASRKHMEVVLIGHAGHPEVEGTMGQYASDTGGMYLVEKPEDVVSLQAKVKDPSNLHYVSQTTLSVDETADVIDELRRVFPKIQGPRKDDICYATQNRQDAVRILAEQVDVMVVVGSKNSSNSTRLKELAEKLGTPGYLIDCPQDIDPEWFVDAQLIGVTAGASAPEELVNQILDRIKELGAT”, which “soluble on expression in E. coli” value is on record?
Answer: not soluble

Question: Which “soluble on expression in E. coli” value does the source give for “KQEVSGQVIYLNRGKSFFAFIKEYLEKETGYKKGVKWNRIALDEVEIITSEMSQARKENIKEAFLDGAVKIIIGTATIREGIDLQRKGTVIYNCYPDWNPTDIRQLEGRIWRQGNE” here?
Answer: not soluble

Question: With “KRFGWTNELMFLFAPIPWSRLPYHSIGYRASGRSYARKEHKPFRYNGFSPGIGINSCLWWKVSVRDEYIFRIGLNVGYEYMDQLYAYRHFKVNEEKPLSSLSQRLKHIGHIGLNFALSLN” as the sequence, how does the “soluble on expression in E. coli” value read?
Answer: not soluble

Question: For “KRIVLGVGGGIAAYKSAELVRRLRDQGAEVRVVMTQGGREFITPLTLQALSGHPVHTDLLDPAAEAAMGHIELARWADLVLIAPATADLMARLVQGVANDLLTTLVLATDAQIALAPAMNQAMWRDTATQANAELLRQRGFHLFGPAAGSQACGDVGLGRMLEAEELAQRAADCFQRQALTGVHVLITAGPTQENIDPVRYITNHSSGKMGFALAEAAVEAGARVTLVTGPVHLPTPDRVQRVDVVSARDMLAACEAAMPCDLLIASAAVADYRPEVVAAHKLKKDPTSGEGLLLQLVRNPDILATLAQREDRPFSVGFAAETENLLDYAARKLKDKNLDLIVANDVANPSIGFNSDENAITVIDRDLHPSTFAQTSKGKIARQLVAFIAD”, which “soluble on expression in E. coli” value is on record?
Answer: not soluble

Question: Which “soluble on expression in E. coli” value does the source give for “KRVFGFVSAKGGDGGSCIAANFAFALSQEPDIHVLAVDISLPFGDLDMYLSGNTHSQDLADISNASDRLDKSLLDTMVQHISPSLDLIPSPATFEKIVNIEPERVSDLIHIAASFYDYIIVDFGASIDHVGVWVLEHLDELCIVTTPSLQSLRRAGQLLKLCKEFEKPISRIEIILNRADTNSRITSDEIEKVIGRPISKRIPQDEDAMQESLLSGQSVLKVAPKSQLSKTIVDWALHLNGVSRPNKRSIWERLKIK” here?
Answer: soluble

Question: For KSCCSCCPAGCEKCAKDCVCKGEEGAKAEAEKCSCCQ, which “soluble on expression in E. coli” value is on record?
Answer: soluble

Question: For “KSITITTPYFVPSEILLHTLRTTAHRGVEVKLILPKKNDSLMVNWASKSFFETLLKAGVQIHEFNGGLLHTKSVVIDESHCIIGTVNLDMRSFWLNFEVSLIVDDPEFTKQLSWVLDGYLEQSTQVCFDTWRHRSWGNRFTERFFSMFSPLL”, which “soluble on expression in E. coli” value is on record?
Answer: not soluble

Question: Which “soluble on expression in E. coli” value does the source give for “KSIYLQSPYFIPDQSYINALKMAANSGVEVNLMIPCKPDHPFVYWATFSNAADLLDSGVNIYTYQNGFIHSKILMIDDEISSIGSANMDFRSFELNFEVNAFIYDEDIAKQLRQAFEKDIEQSKLLTKEVYDKR” here?
Answer: not soluble

Question: For “KSLTLVLHRDSGSLGFNIIGGRPSVDNHDGSSSEGIFVSKIVDSGPAAKEGGLQIHDRIIEVNGRDLSRATHDQAVEAFKTAKEPIVVQVLRRT”, which “soluble on expression in E. coli” value is on record?
Answer: soluble

Question: With “KSVYLQSPYFIPDNSYINAIKIAAKSGVDVHLMIPCKPDHPLVYWATFSNASDLLSSGVKIYTYENGFIHSKMCLIDDEIVSVGTANMDFRSFELNFEVNAFVYDENLAKDLRVAYEHDITKSKQLTKESYANR” as the sequence, how does the “soluble on expression in E. coli” value read?
Answer: not soluble

Question: Which “soluble on expression in E. coli” value does the source give for “KSYASTPELRKTWLDSMARIHVKNGDLSEAAMCYVHVTALVAEYLTRKGVFRQGCTAFRVITPNIDEEASMMEDVGMQDVHFNEDVLMELLEQCADGLWKAERYELIADIYKLIIPIYEKRRDFERLAHLYDTLHRAYSKVTEVMHSGRRLLGTYFRVAFFGQGFFEDEDGKEYIYKEPKLTPLSEISQRLLKLYSDKFGSENVKMIQDSGKVNPKDLDSKYAYIQVTHVIPFFDEKELQERKTEFERSHNIRRFMFEMPFTQTGKRQGGVEEQCKRRTILTAIHCFPYVKKRIPVMYQHHTDLNPIEVAIDEMSKKVAELRQLCSSAEVDMIKLQLKLQGSVSVQVNAGPLAYARAFLDDTNTKRYPDNKVKLLKEVFRQFVEACGQALAVNERLIKEDQLEYQEEMKANYREMAKELSEIMHEQLG” here?
Answer: soluble

Question: Which “soluble on expression in E. coli” value does the source give for “LAAGPALSARGYLALNGQTPAGCSLMEWQNDNNGRQRWCVRLVQGGGFAGPLFDGFDNLYVGQPGAIISFPPTQWTRWRQPVIGMPSTPRFLGHGRLLVSTHLGQLLVFDTRRGMVVGSPVDLVDGIDPTDATRGLADCAPARPGCPVAAAPAFSSVNGTVVVSVWQPGEPAAKLVGLKYHAEQLVREWTSDAVSAGVLASPVLSADGSTVYVNGRDHRLWALNAADGKAKWSAPLGFLAQTPPALTPHGLIVSGGGPDTALAAFRDAGDHAEGAWRRDDVTALSTASLAGTGVGYTVISGPNHDGTPGLSLLVFDPANGHTVNSYPLPGATGYPVGVSVGNDRRVVTATSDGQVYSFAP” here?
Answer: not soluble
